What was measured:
EphA2 [1] = biological target: T1, EphA2 (Homo sapiens, UniProt P29317); assay: EphA2 immunoprecipitation and anti-phosphotyrosine Western blot; assay type: cell-based; set-up: endogenous in cells; host or cells: PC3 prostate carcinoma cells (A9, A10); SLR24 renal cell carcinoma cells (A10); details: PC3 cells; B61.Ig 30 μg/ml or mAb208 8 μg/ml
Description: (§1) Western Blot Analyses. Tumor cells were grown to 80-90% confluency, serum starved overnight, then treated with agonists where indicated. In addition, resected SLR24 lesions were obtained pre- and 24 h post-intratumoral injection with B61-Ig, as outlined below. Tumor samples were analyzed for EphA2 expression via Western blots using the rabbit anti-human EphA2 polyclonal antibody (clone: C-20), Santa Cruz Biotechnology, Inc., Santa Cruz, Calif.). In some experiments, samples were also analyzed for Axl (clone C-20, Santa Cruz Biotechnology, Santa Cruz, Calif.) protein content. Single tumor cell suspensions isolated from confluent tissue culture flasks or from the enzymatic digestion of resected lesions were lysed using 500·mu·l lysis buffer (1% Triton-X, […], 10 mM Tris pH 7.4, 1 mM EDTA, 0.2 mM SOV, 0.5% NP-40) in PBS containing protease inhibitors (Complete, Roche Diagnostic, Mannheim, Germany) for 30 min at 4° C. After centrifugation at 13,500×g for 20 minutes, the supernatant was mixed 1:1 with SDS-PAGE running buffer and proteins separated on 7.5% PAGE gels, prior to electro-blotting onto nitrocellulose membranes (Millipore, Bedford, Mass.). […]

SLR24 tumors = assay: Hu-SCID tumor model; assay type: in vivo, C.B-17 scid/scid mice
SLR24 RCC cells = assay: IFN-γ ELISPOT, recognition of SLR24 by anti-EphA2 CTL clone CL.142; assay type: cell-based, human; details: B61.Ig 30 μg/ml overnight, relative to untreated cells
EphA2 [2] = biological target: T1, EphA2; assay: Western blot of EphA2 protein degradation in tumor cells; assay type: cell-based; set-up: PC3 (left panel) and SLR24 (right panel) cells were treated for 6 hours with either B61.Ig; endogenous in cells; host or cells: PC3 prostate carcinoma cells (A9, A10); SLR24 renal cell carcinoma cells (A10); details: PC3 and SLR24 cells; 6 hours; B61.Ig 30 μg/ml or mAb208 8 μg/ml
EphA2 [3] = biological target: T1, EphA2; assay: Western blot of EphA2 in resected SLR24 lesions after B61-Ig; assay type: in vivo, C.B-17 scid/scid mice; set-up: resected SLR24 lesions were obtained pre- and 24 h post-intratumoral injection with B61-Ig; from tissue; host or cells: SLR24 human RCC xenograft lesions resected from C.B-17 scid/scid mice; details: SLR24 tumors resected 24 hours after B61-Ig
Description: as §1, with “C.” for “C. After centrifugation at 13,500×g for 20 minutes, the supernatant was mixed 1:1 with SDS-PAGE running buffer and proteins separated on 7.5% PAGE gels, prior to electro-blotting onto nitrocellulose membranes (Millipore, Bedford, Mass.).”
Hu-SCID Tumor Model. […] Animals were evaluated every 3-4 days for tumor size, with tumor-free status noted on day 40 post-tumor inoculation. […]
EphA2 Agonist Treatment Enhances the efficacy of adoptively transferred anti-EphA2 CD8^+ T Cells in a Hu-SCID Tumor Model. […] Animals were evaluated every 3-4 days for tumor size, with tumor-free status noted on day 40 post-tumor inoculation. […]

[4] = single therapy: B61-Ig 50 μg intratumoral d18 or 5×10^6 E883 T cells i.v. d19

B1: B61.Ig: chimeric protein consisting of the ligand binding domain of ephrin-A1 fused with the Fc portion of a mouse IgG antibody (protein)
chain: DRHTVFWNSSNPKFRNEDYTIHVQLNDYVDIICPHYEDHSVADAAMEQYILYLVEHEEYQLCQPQSKDQVRWQCNRPSAKHGPEKLSEKFQRFTPFTLGKEFKEGHSYYYISKPIHQHEDRCLRLKVTVSGKITHSPQAHDNPQEKRLAADDPEVRVLHSIGHS
modifications: left off: a dimerising Fc or GST
EphA2 phosphorylation (phosphotyrosine content) (EphA2 [1]): Induce EphA2 Phosphorylation | Benefit vs. B61-Ig treatment alone (SLR24 tumors; B61-Ig combined with CD8+ T cells specific for influenza matrix58-66, data not shown): no enhanced benefit | Resolution of disease (treated mice) (SLR24 tumors; combination: B61-Ig 50 μg intratumoral d18 plus 5×10^6 E883 anti-EphA2 CD8+ T cells i.v. d19, tumor-free status day 40): 5/5 | Animals cured (SLR24 tumors; [4]): no animals were cured | SLR24 tumor growth (SLR24 tumors; [4]): delayed growth | CL.142 recognition of SLR24 (IFN-γ ELISPOT) (SLR24 RCC cells): significantly enhanced | EphA2 protein degradation (EphA2 [2]): Degradation | EphA2 processing/degradation in situ (EphA2 [3]): promoted EphA2 processing in situ
